Reference: the supplement of paper PMC9112550, “Optimization of the antimicrobial peptide Bac7 by deep mutational scanning” (BMC Biology, 2022)

System: Escherichia coli TOP10
Test: shrunken log2 fold change of peptide-encoding DNA abundance (4.5 h post-induction vs induction); higher = less antimicrobial activity (less host growth inhibition)
Conditions: time post-induction: 4.5 h; library: site-saturation at positions 5, 18, 19, 20
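Further: peptides expressed intracellularly from a pBAD plasmid library in pooled LB shake-flask culture, induced with 0.3% L-arabinose, DNA abundance read by NGS, three biological replicates, DESeq2 with apeglm shrinkage.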

Sequence | shrunken log2 fold change
RRIRLRPPRLPRPRPRPWSAPRP | 0.539
RRIRLRPPRLPRPRPRPWSSPRP | -0.469
RRIRLRPPRLPRPRPRPWTNPRP | 0.0169
RRIRLRPPRLPRPRPRPWVVPRP | 0.0937
RRIRLRPPRLPRPRPRPWWEPRP | 0.176
RRIRLRPPRLPRPRPRPWWKPRP | -0.198
RRIRLRPPRLPRPRPRPWWRPRP | 0.197
RRIRLRPPRLPRPRPRPYAIPRP | -0.233
RRIRLRPPRLPRPRPRPYDCPRP | 0.0192
RRIRLRPPRLPRPRPRPYEQPRP | -0.104
RRIRLRPPRLPRPRPRPYESPRP | -0.957
RRIRLRPPRLPRPRPRPYFGPRP | -0.218
RRIRLRPPRLPRPRPRPYGIPRP | -0.00489
RRIRLRPPRLPRPRPRPYHDPRP | -0.131
RRIRLRPPRLPRPRPRPYHGPRP | -0.278
RRIRLRPPRLPRPRPRPYHKPRP | -0.304
RRIRLRPPRLPRPRPRPYHRPRP | 0.0373
RRIRLRPPRLPRPRPRPYHWPRP | -0.188
RRIRLRPPRLPRPRPRPYKRPRP | -0.0165
RRIRLRPPRLPRPRPRPYLAPRP | -0.756
RRIRLRPPRLPRPRPRPYLNPRP | -1.13
RRIRLRPPRLPRPRPRPYLSPRP | -0.0116
RRIRLRPPRLPRPRPRPYMCPRP | -0.252
RRIRLRPPRLPRPRPRPYNHPRP | -0.669
RRIRLRPPRLPRPRPRPYNVPRP | -0.119

Sequence | shrunken log2 fold change
RRIRLRPPRLPRPRPRPYNWPRP | -0.0937
RRIRLRPPRLPRPRPRPYNYPRP | -0.439
RRIRLRPPRLPRPRPRPYPCPRP | 0.0537
RRIRLRPPRLPRPRPRPYPRPRP | -0.0678
RRIRLRPPRLPRPRPRPYQKPRP | 0.00934
RRIRLRPPRLPRPRPRPYRDPRP | 0.0076
RRIRLRPPRLPRPRPRPYREPRP | -0.134
RRIRLRPPRLPRPRPRPYRLPRP | -0.0305
RRIRLRPPRLPRPRPRPYRSPRP | -0.0017
RRIRLRPPRLPRPRPRPYSEPRP | -1.71
RRIRLRPPRLPRPRPRPYSGPRP | -0.103
RRIRLRPPRLPRPRPRPYSPPRP | -0.299
RRIRLRPPRLPRPRPRPYSVPRP | 0.0375
RRIRLRPPRLPRPRPRPYTLPRP | -0.143
RRIRLRPPRLPRPRPRPYVDPRP | -0.0393
RRIRLRPPRLPRPRPRPYWWPRP | 0.0346
RRIRLRPPRLPRPRPRPYYNPRP | -1.18
RRIRLRPPRLPRPRPRPYYYPRP | -1.03
RRIRMRPPRLPRPRPRPAATPRP | 0.573
RRIRMRPPRLPRPRPRPACHPRP | 0.151
RRIRMRPPRLPRPRPRPAECPRP | 0.042
RRIRMRPPRLPRPRPRPAFAPRP | 0.738
RRIRMRPPRLPRPRPRPAFEPRP | 0.763
RRIRMRPPRLPRPRPRPAFTPRP | 0.251
RRIRMRPPRLPRPRPRPAGHPRP | 1.24

Sequence | shrunken log2 fold change
RRIRMRPPRLPRPRPRPAGKPRP | 0.461
RRIRMRPPRLPRPRPRPAHAPRP | 1.16
RRIRMRPPRLPRPRPRPAIFPRP | 0.243
RRIRMRPPRLPRPRPRPAIRPRP | -0.0476
RRIRMRPPRLPRPRPRPAKVPRP | 0.303
RRIRMRPPRLPRPRPRPANFPRP | -0.000946
RRIRMRPPRLPRPRPRPANLPRP | 0.013
RRIRMRPPRLPRPRPRPAPKPRP | 0.675
RRIRMRPPRLPRPRPRPAQPPRP | 0.586
RRIRMRPPRLPRPRPRPARDPRP | 1.65
RRIRMRPPRLPRPRPRPARHPRP | 0.974
RRIRMRPPRLPRPRPRPASWPRP | 0.901
RRIRMRPPRLPRPRPRPATTPRP | 0.538
RRIRMRPPRLPRPRPRPATVPRP | 0.323
RRIRMRPPRLPRPRPRPAWNPRP | 0.43
RRIRMRPPRLPRPRPRPAYDPRP | -0.0572
RRIRMRPPRLPRPRPRPAYWPRP | 0.509
RRIRMRPPRLPRPRPRPCAAPRP | 2.26
RRIRMRPPRLPRPRPRPCAVPRP | 0.296
RRIRMRPPRLPRPRPRPCCYPRP | -0.427
RRIRMRPPRLPRPRPRPCDMPRP | 0.195
RRIRMRPPRLPRPRPRPCDQPRP | -0.134
RRIRMRPPRLPRPRPRPCEQPRP | 0.195
RRIRMRPPRLPRPRPRPCESPRP | -0.0088
RRIRMRPPRLPRPRPRPCGIPRP | -0.0517

Sequence | shrunken log2 fold change
RRIRMRPPRLPRPRPRPCGTPRP | 1.97
RRIRMRPPRLPRPRPRPCHTPRP | 0.0555
RRIRMRPPRLPRPRPRPCIKPRP | 0.0207
RRIRMRPPRLPRPRPRPCITPRP | 0.156
RRIRMRPPRLPRPRPRPCKNPRP | 4.11
RRIRMRPPRLPRPRPRPCMQPRP | -0.143
RRIRMRPPRLPRPRPRPCPQPRP | 0.0219
RRIRMRPPRLPRPRPRPCRDPRP | 0.244
RRIRMRPPRLPRPRPRPCRIPRP | -0.0476
RRIRMRPPRLPRPRPRPCRMPRP | -0.0205
RRIRMRPPRLPRPRPRPCSDPRP | 0.0242
RRIRMRPPRLPRPRPRPCSIPRP | -0.0306
RRIRMRPPRLPRPRPRPCVGPRP | 0.584
RRIRMRPPRLPRPRPRPCWHPRP | -0.0624
RRIRMRPPRLPRPRPRPCWLPRP | -0.0281
RRIRMRPPRLPRPRPRPCYIPRP | -0.133
RRIRMRPPRLPRPRPRPDDPPRP | 1.6
RRIRMRPPRLPRPRPRPDERPRP | 1.11
RRIRMRPPRLPRPRPRPDFKPRP | -0.11
RRIRMRPPRLPRPRPRPDFWPRP | 0.778
RRIRMRPPRLPRPRPRPDHSPRP | 0.318
RRIRMRPPRLPRPRPRPDHWPRP | 0.617
RRIRMRPPRLPRPRPRPDIWPRP | 1.41
RRIRMRPPRLPRPRPRPDKTPRP | 0.00408
RRIRMRPPRLPRPRPRPDLSPRP | 1.58

Sequence | shrunken log2 fold change
RRIRMRPPRLPRPRPRPDMCPRP | 1.86
RRIRMRPPRLPRPRPRPDMFPRP | 2.25
RRIRMRPPRLPRPRPRPDMSPRP | -0.00277
RRIRMRPPRLPRPRPRPDMYPRP | -0.138
RRIRMRPPRLPRPRPRPDNRPRP | 0.00102
RRIRMRPPRLPRPRPRPDPCPRP | 0.0496
RRIRMRPPRLPRPRPRPDSEPRP | 1.82
RRIRMRPPRLPRPRPRPDSLPRP | -0.0169
RRIRMRPPRLPRPRPRPDTWPRP | 0.34
RRIRMRPPRLPRPRPRPDVHPRP | 0.109
RRIRMRPPRLPRPRPRPDVWPRP | 1.19
RRIRMRPPRLPRPRPRPDWTPRP | 0.0113
RRIRMRPPRLPRPRPRPDYAPRP | 0.263
RRIRMRPPRLPRPRPRPEDWPRP | 3.63
RRIRMRPPRLPRPRPRPEEAPRP | 3.94
RRIRMRPPRLPRPRPRPEEYPRP | 0.0514
RRIRMRPPRLPRPRPRPEFMPRP | 0.656
RRIRMRPPRLPRPRPRPEGRPRP | 3.21
RRIRMRPPRLPRPRPRPEHDPRP | 1.62
RRIRMRPPRLPRPRPRPEHIPRP | -0.0225
RRIRMRPPRLPRPRPRPEINPRP | 2.85
RRIRMRPPRLPRPRPRPEKIPRP | 0.856
RRIRMRPPRLPRPRPRPEKWPRP | 1.56
RRIRMRPPRLPRPRPRPELDPRP | 2.77
RRIRMRPPRLPRPRPRPELNPRP | 0.0722

Sequence | shrunken log2 fold change
RRIRMRPPRLPRPRPRPELYPRP | 0.0658
RRIRMRPPRLPRPRPRPEMYPRP | 0.216
RRIRMRPPRLPRPRPRPENLPRP | -0.00111
RRIRMRPPRLPRPRPRPEPAPRP | 3.51
RRIRMRPPRLPRPRPRPEQGPRP | 0.493
RRIRMRPPRLPRPRPRPEQIPRP | 0.527
RRIRMRPPRLPRPRPRPESDPRP | 3.34
RRIRMRPPRLPRPRPRPEVVPRP | 2.97
RRIRMRPPRLPRPRPRPEWAPRP | 1.36
RRIRMRPPRLPRPRPRPEWEPRP | -0.00306
RRIRMRPPRLPRPRPRPEYTPRP | -0.0269
RRIRMRPPRLPRPRPRPFAKPRP | 0.3
RRIRMRPPRLPRPRPRPFAYPRP | -0.157
RRIRMRPPRLPRPRPRPFCQPRP | 0.0975
RRIRMRPPRLPRPRPRPFDQPRP | 0.00237
RRIRMRPPRLPRPRPRPFEDPRP | 0.2
RRIRMRPPRLPRPRPRPFHDPRP | -0.14
RRIRMRPPRLPRPRPRPFIGPRP | -0.0122
RRIRMRPPRLPRPRPRPFILPRP | -0.41
RRIRMRPPRLPRPRPRPFIQPRP | 0.0137
RRIRMRPPRLPRPRPRPFIRPRP | -0.47
RRIRMRPPRLPRPRPRPFKPPRP | -0.119
RRIRMRPPRLPRPRPRPFLFPRP | 0.0343
RRIRMRPPRLPRPRPRPFMNPRP | -0.196
RRIRMRPPRLPRPRPRPFMWPRP | -0.128
